Experimental data published in patent US20190352395A1 (REDWOOD BIOSCIENCE, published 2019).
Where a chain is given by its changes, count along the chain named.

B1: humanized RFB4 antibody VH6/VK2 (antibody, human IgG1, V domains shown)
VH: EVQLVESGGGLVKPGGSLKLSCAASGFAFSIYDMSWVRQAPGKGLEWVAYISSGGGTTYYPDTVKGRFTISRDNAKNSLYLQMSSLRAEDTAMYYCARHSGYGSSYGVLFAYWGQGTLVTVSS
VL: DIQMTQSPSSLSASVGDRVTITCRASQDISNYLNWYQQKPGKAVKLLIYYTSILHSGVPSRFSGSGSGTDYTLTISSLQPEDFATYFCQQGNTLPWTFGGGTKVEIK
B2: humanized RFB4 antibody VH6/VK4 (antibody, human IgG1, V domains shown)
VH: B1 VH
VL: B1 VL with L11V, V44P
B3: humanized RFB4 antibody VH4/VK1 (antibody, human IgG1, V domains shown)
VH: B1 VH with K19R
VL: B1 VL with P80Q
B4: humanized RFB4 antibody VH3/VK2 (antibody, human IgG1, V domains shown)
VH: B1 VH with S78T
VL: B1 VL
B5: humanized RFB4 antibody VH3/VK4 (antibody, human IgG1, V domains shown)
VH: B1 VH with S78T
VL: B1 VL with L11V, V44P
B6: humanized RFB4 antibody VH5/VK4 (antibody, human IgG1, V domains shown)
VH: B1 VH with S84N
VL: B1 VL with L11V, V44P
B7: humanized RFB4 antibody VH4/VK4 (antibody, human IgG1, V domains shown)
VH: B1 VH with K19R
VL: B1 VL with L11V, V44P
B8: humanized RFB4 antibody VH3/VK1 (antibody, human IgG1, V domains shown)
VH: B1 VH with S78T
VL: B1 VL with P80Q
B9: humanized RFB4 antibody VH5/VK2 (antibody, human IgG1, V domains shown)
VH: B1 VH with S84N
VL: B1 VL
B10: humanized RFB4 antibody VH5/VK1 (antibody, human IgG1, V domains shown)
VH: B1 VH with S84N
VL: B1 VL with P80Q
B11: humanized RFB4 antibody VH4/VK2 (antibody, human IgG1, V domains shown)
VH: B1 VH with K19R
VL: B1 VL
B12: humanized RFB4 antibody VH6/VK1 (antibody, human IgG1, V domains shown)
VH: B1 VH
VL: B1 VL with P80Q

Target: T1, CD22-Fc (R&D Systems Cat. No. 1968SL) (human, UniProt P20273 20-687)
T1 construct: Bought reagent; also called CD22 antigen; huCD22-Fc; not shown: Fc part of the bought fusion
T1 sequence (looked up): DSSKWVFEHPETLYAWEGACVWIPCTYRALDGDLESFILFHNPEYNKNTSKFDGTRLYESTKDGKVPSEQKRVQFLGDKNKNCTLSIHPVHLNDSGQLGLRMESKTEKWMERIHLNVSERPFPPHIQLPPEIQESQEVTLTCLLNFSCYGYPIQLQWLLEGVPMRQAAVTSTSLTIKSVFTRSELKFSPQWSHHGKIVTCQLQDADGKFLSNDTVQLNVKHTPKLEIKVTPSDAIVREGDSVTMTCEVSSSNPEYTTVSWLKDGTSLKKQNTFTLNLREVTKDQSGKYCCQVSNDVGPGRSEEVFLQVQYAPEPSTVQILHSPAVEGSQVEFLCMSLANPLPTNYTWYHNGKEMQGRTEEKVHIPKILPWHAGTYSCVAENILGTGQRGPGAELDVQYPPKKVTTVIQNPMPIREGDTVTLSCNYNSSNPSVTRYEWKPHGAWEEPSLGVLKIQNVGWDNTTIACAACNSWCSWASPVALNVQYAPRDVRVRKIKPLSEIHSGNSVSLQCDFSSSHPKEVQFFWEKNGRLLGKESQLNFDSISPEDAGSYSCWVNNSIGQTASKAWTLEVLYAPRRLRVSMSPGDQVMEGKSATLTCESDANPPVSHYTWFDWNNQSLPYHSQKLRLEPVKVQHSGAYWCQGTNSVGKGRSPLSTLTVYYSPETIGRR
Experiment: competition ELISA on coated CD22-Fc; competitor biotinylated chimeric RFB4
Method: 96 well MaxiSorp plates (Nunc) were coated with 1.0 μg/ml CD22-Fc (R&D Systems Cat. No. 1968SL) in Dulbecco's PBS (PAA Laboratories, Yeovil, UK) (60 μl final volume) at 4° C. overnight. Plates were blocked with Dulbecco's PBS-2% BSA for 1 hour at room temperature. Plates were washed 3 times with wash buffer (0.05% Tween20 in Dulbecco's-PBS). […] All samples were tested in duplicate. Plates were incubated for 1 h at room temperature and washed 3 times with wash buffer. 60 μl of a 1 in 1000 dilution of Streptavidin horse radish peroxidase (HRP) (Sigma-Aldrich) was added and incubated for 1 hour at room temperature. Plates were washed 3 times with wash buffer and 60 μl of 3,3′,5,5′-tetramethybenzidine (TMB) substrate (Invitrogen) was added and incubated at room temperature in the dark to allow the colour to develop. The reaction was stopped by adding 50 μl of 3M HCl. Plates were read at 450 nm using Dynex plate reader.

Binder	IC50 relative to Chimeric RFB4 IgG1
B1	1 relative to Chimeric RFB4 IgG1
B2	1 relative to Chimeric RFB4 IgG1
B3	0.9 relative to Chimeric RFB4 IgG1
B4	1 relative to Chimeric RFB4 IgG1
B5	1.1 relative to Chimeric RFB4 IgG1
B6	1 relative to Chimeric RFB4 IgG1
B7	1 relative to Chimeric RFB4 IgG1
B8	0.8 relative to Chimeric RFB4 IgG1
B9	1 relative to Chimeric RFB4 IgG1
B10	0.9 relative to Chimeric RFB4 IgG1
B11	1.1 relative to Chimeric RFB4 IgG1
B12	0.9 relative to Chimeric RFB4 IgG1
